The source of these data is publication doi:10.1101/475152.

The target of the data set is Mlh1-Pms1 DLDMMR (Saccharomyces cerevisiae (yeast; …, UniProt P38920;P14242 1-347+374-769;1-436+488-873, internal_change;internal_change). Nature of the data set: filter binding.

B1: 49-mer homoduplex AO3142/AO3144 (dsDNA)
DNA 1: GGGTCAACGTGGGCAAAGATGTCCTAGCAAGTCAGAATTCGGTAGCGTG
DNA 2: CACGCTACCGAATTCTGACTTGCTAGGACATCTTTGCCCACGTTGACCC
Turning to B1, the binding result is listed as “binds”.
